The results in this text go back to doi:10.1101/2024.10.11.617910.

The assay concerns the target pyroglutamate beta-amyloid peptide (pGlu3-Aβ). The assay can be described thus: SiMoA.

B1: Lecanemab (antibody, V domains shown)
VH: EVQLVESGGGLVQPGGSLRLSCSASGFTFSSFGMHWVRQAPGKGLEWVAYISSGSSTIYYGDTVKGRFTISRDNAKNSLFLQMSSLRAEDTAVYYCAREGGYYYGRSYYTMDYWGQGTTVTVSS
VL: DVVMTQSPLSLPVTPGAPASISCRSSQSIVHSNGNTYLEWYLQKPGQSPKLLIYKVSNRFSGVPDRFSGSGSGTDFTLRISRVEAEDVGIYYCFQGSHVPPTFGPGTKLEIK
For B1, the limit of detection (LoD) was determined as 4 pM.
